Source: publication PMC10000386

B1: Bak [human] / Bak [human] (parent)
chain 1: MASGQGPGPPRQECGEPALPSASEEQVAQDTEEVFRSYVFYRHQQEQEAEGVAAPADPEMVTLPLQPSSTMGQVGRQLAIIGDDINRRYDSEFQTMLQHLQPTAENAYEYFTKIATSLFESGINWGRVVALLGFGYRLALHVYQHGLTGFLGQVTRFVVDFMLHHCIARWIAQRGGWVAALNLGNGPILNVLVVLGVVLLGQFVVRRFFKS
chain 2: B1 chain 1

Variants of: B1
Experiment: BiFC (flow cytometry)
Details: with Bak [human]; 6 independent experiments (H164A), 8 (WT); read off a plot

| response (Mean Venus/Mean mRFP) | Variant |
| --- | --- |
| 1.8 | chain 1 H164A |

Same assay, conditions: with Bak [human]; 6 independent experiments; read off a plot

| response (Mean Venus/Mean mRFP) | Variant |
| --- | --- |
| 1.8 | chain 1 H164A |
